# Measured values: PMC10294656
# Molecular target: human apolipoprotein-B mRNA-editing catalytic polypetide-like 3A protein (human) (UniProt P31941)
# Assay: co-IP; HepaRG cells cotransfected with pLenti6.3-Apobec3A-V5 and pEYFP-Apobec3A, mock-infected or infected with HAdV wt (50 ffu/cell), harvested 24 and 48 hpi; whole-cell lysates; YFP-Apobec3A held on ChromoTek GFP-Trap agarose beads, V5-Apobec3A detected by Western blot; V5 signal normalised to input and β-actin
# human apolipoprotein-B mRNA-editing catalytic polypetide-like 3A protein, P31941 1-199 (enzyme; other documents disagree on this pair), sequence (P31941 whole entry): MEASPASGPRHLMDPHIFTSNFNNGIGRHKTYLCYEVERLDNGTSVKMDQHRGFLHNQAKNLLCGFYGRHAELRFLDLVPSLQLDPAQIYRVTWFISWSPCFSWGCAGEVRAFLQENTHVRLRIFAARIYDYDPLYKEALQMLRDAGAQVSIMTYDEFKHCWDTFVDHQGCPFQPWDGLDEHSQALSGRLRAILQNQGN
substance,measurement,value
"human apolipoprotein-B mRNA-editing catalytic polypetide-like 3A protein, P31941 1-199 (enzyme; other documents disagree on this pair)",fold increase of co-precipitated V5-Apobec3A at 48 h after HAdV infection against mock,10 fold
